To fix the notation:
B1: GpH7-B3 variant A330_01G/GpL16-k0 (antibody, human IgG1, kappa)
heavy: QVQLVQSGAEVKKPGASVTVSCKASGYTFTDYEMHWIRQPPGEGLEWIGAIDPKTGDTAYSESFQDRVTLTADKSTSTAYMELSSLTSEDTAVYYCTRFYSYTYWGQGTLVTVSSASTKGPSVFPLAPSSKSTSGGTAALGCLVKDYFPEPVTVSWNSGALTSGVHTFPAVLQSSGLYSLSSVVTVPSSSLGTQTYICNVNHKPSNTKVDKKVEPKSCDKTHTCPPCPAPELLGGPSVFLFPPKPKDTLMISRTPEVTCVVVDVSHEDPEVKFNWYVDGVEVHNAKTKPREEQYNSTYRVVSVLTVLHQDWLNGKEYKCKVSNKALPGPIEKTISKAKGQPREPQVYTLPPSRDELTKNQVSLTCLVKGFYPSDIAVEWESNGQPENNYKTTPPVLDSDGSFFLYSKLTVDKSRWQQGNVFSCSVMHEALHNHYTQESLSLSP
light: DIVMTQSPLSLPVTPGEPASISCQASESLVHSNRNTYLHWYLQKPGQSPQLLIYKVSNRFSGVPDRFSGSGSGTDFTLKISRVEAEDVGVYYCSQNTHVPPTFGQGTKVEIERTVAAPSVFIFPPSDEQLKSGTASVVCLLNNFYPREAKVQWKVDNALQSGNSQESVTEQDSKDSTYSLSSTLTLSKADYEKHKVYACEVTHQGLSSPVTKSFNRGEC
notes: also called Ho Ab A330_01G
B2: GpH7-B3 variant G237_09D/GpL16-k0 (antibody, human IgG1, kappa)
heavy: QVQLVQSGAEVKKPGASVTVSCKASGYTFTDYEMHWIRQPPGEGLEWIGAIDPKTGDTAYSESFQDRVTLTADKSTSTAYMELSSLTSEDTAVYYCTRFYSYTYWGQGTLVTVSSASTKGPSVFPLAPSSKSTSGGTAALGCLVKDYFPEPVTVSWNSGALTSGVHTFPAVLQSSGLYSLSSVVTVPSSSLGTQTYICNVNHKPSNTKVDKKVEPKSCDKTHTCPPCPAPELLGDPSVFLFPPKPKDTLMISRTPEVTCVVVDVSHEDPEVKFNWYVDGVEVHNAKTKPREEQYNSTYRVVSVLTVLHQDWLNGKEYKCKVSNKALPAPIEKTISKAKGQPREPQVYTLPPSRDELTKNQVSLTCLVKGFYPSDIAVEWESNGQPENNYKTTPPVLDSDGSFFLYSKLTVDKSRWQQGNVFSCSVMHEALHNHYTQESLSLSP
light: DIVMTQSPLSLPVTPGEPASISCQASESLVHSNRNTYLHWYLQKPGQSPQLLIYKVSNRFSGVPDRFSGSGSGTDFTLKISRVEAEDVGVYYCSQNTHVPPTFGQGTKVEIERTVAAPSVFIFPPSDEQLKSGTASVVCLLNNFYPREAKVQWKVDNALQSGNSQESVTEQDSKDSTYSLSSTLTLSKADYEKHKVYACEVTHQGLSSPVTKSFNRGEC
notes: also called Ho Ab G237_09D
B3: GpH7-B3 variant G237_06M/GpL16-k0 (antibody, human IgG1, kappa)
heavy: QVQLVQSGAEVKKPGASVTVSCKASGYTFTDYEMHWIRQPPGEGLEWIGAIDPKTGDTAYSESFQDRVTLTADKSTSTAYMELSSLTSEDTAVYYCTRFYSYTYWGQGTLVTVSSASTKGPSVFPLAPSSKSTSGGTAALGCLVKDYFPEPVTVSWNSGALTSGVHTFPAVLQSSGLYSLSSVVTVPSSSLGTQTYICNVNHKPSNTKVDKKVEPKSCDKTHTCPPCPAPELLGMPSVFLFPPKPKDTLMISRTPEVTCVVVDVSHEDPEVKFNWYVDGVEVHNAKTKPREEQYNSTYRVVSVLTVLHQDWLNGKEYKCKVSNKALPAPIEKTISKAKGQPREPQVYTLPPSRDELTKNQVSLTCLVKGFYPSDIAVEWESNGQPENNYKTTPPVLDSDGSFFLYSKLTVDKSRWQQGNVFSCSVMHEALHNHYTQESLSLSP
light: DIVMTQSPLSLPVTPGEPASISCQASESLVHSNRNTYLHWYLQKPGQSPQLLIYKVSNRFSGVPDRFSGSGSGTDFTLKISRVEAEDVGVYYCSQNTHVPPTFGQGTKVEIERTVAAPSVFIFPPSDEQLKSGTASVVCLLNNFYPREAKVQWKVDNALQSGNSQESVTEQDSKDSTYSLSSTLTLSKADYEKHKVYACEVTHQGLSSPVTKSFNRGEC
notes: also called Ho Ab G237_06M
B4: GpH7-B3 variant G237_13S/GpL16-k0 (antibody, human IgG1, kappa)
heavy: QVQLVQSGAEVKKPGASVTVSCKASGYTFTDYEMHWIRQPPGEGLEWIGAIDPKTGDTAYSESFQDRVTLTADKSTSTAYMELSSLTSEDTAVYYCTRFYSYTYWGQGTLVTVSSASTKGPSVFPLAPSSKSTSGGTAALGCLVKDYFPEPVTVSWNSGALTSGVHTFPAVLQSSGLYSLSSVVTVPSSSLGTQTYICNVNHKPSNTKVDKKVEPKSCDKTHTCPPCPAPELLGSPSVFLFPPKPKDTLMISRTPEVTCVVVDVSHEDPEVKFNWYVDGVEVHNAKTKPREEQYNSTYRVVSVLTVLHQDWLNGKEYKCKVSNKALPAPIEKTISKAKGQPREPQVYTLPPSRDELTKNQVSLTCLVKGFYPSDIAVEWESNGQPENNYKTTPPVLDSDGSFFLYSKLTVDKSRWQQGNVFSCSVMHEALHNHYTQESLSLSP
light: DIVMTQSPLSLPVTPGEPASISCQASESLVHSNRNTYLHWYLQKPGQSPQLLIYKVSNRFSGVPDRFSGSGSGTDFTLKISRVEAEDVGVYYCSQNTHVPPTFGQGTKVEIERTVAAPSVFIFPPSDEQLKSGTASVVCLLNNFYPREAKVQWKVDNALQSGNSQESVTEQDSKDSTYSLSSTLTLSKADYEKHKVYACEVTHQGLSSPVTKSFNRGEC
notes: also called Ho Ab G237_13S
B5: GpH7-B3 variant A330_05P/GpL16-k0 (antibody, human IgG1, kappa)
heavy: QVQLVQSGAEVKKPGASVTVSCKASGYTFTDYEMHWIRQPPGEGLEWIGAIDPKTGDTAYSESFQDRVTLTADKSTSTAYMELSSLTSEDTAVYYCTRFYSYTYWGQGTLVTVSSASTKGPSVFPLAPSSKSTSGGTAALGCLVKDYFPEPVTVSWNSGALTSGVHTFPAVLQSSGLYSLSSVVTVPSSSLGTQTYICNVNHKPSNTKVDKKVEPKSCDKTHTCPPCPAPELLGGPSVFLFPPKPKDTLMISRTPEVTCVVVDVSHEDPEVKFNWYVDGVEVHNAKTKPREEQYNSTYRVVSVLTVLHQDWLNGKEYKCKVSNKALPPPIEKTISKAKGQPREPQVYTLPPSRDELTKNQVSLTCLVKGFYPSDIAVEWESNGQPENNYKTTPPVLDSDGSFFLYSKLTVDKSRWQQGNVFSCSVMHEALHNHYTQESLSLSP
light: DIVMTQSPLSLPVTPGEPASISCQASESLVHSNRNTYLHWYLQKPGQSPQLLIYKVSNRFSGVPDRFSGSGSGTDFTLKISRVEAEDVGVYYCSQNTHVPPTFGQGTKVEIERTVAAPSVFIFPPSDEQLKSGTASVVCLLNNFYPREAKVQWKVDNALQSGNSQESVTEQDSKDSTYSLSSTLTLSKADYEKHKVYACEVTHQGLSSPVTKSFNRGEC
notes: also called Ho Ab A330_05P
B6: GpH7-B3 variant G237_08L/GpL16-k0 (antibody, human IgG1, kappa)
heavy: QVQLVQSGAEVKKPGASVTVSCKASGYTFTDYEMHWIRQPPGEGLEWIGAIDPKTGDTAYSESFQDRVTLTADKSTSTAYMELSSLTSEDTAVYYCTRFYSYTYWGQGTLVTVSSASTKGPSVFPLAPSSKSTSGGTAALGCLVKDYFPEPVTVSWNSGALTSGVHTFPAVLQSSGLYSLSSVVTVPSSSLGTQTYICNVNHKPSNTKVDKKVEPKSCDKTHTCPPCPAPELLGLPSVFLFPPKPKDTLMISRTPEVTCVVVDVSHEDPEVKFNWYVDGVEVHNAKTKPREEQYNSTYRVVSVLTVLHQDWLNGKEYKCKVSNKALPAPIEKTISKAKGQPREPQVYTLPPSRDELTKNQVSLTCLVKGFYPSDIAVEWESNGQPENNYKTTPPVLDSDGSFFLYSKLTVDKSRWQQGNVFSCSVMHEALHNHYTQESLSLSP
light: DIVMTQSPLSLPVTPGEPASISCQASESLVHSNRNTYLHWYLQKPGQSPQLLIYKVSNRFSGVPDRFSGSGSGTDFTLKISRVEAEDVGVYYCSQNTHVPPTFGQGTKVEIERTVAAPSVFIFPPSDEQLKSGTASVVCLLNNFYPREAKVQWKVDNALQSGNSQESVTEQDSKDSTYSLSSTLTLSKADYEKHKVYACEVTHQGLSSPVTKSFNRGEC
notes: also called Ho Ab G237_08L
B7: GpH7-B3 variant G237_10E/GpL16-k0 (antibody, human IgG1, kappa)
heavy: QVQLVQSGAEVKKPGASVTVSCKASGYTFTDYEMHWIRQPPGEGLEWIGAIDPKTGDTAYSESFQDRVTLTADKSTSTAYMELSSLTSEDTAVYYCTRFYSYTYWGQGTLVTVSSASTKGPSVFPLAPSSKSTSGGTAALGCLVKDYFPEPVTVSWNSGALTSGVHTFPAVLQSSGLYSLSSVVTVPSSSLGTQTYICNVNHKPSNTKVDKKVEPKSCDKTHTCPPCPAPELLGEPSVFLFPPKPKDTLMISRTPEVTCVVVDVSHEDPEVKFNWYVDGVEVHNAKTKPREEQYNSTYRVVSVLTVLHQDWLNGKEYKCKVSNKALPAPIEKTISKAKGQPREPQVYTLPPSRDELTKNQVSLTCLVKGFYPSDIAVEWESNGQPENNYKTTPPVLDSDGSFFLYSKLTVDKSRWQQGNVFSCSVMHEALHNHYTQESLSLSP
light: DIVMTQSPLSLPVTPGEPASISCQASESLVHSNRNTYLHWYLQKPGQSPQLLIYKVSNRFSGVPDRFSGSGSGTDFTLKISRVEAEDVGVYYCSQNTHVPPTFGQGTKVEIERTVAAPSVFIFPPSDEQLKSGTASVVCLLNNFYPREAKVQWKVDNALQSGNSQESVTEQDSKDSTYSLSSTLTLSKADYEKHKVYACEVTHQGLSSPVTKSFNRGEC
notes: also called Ho Ab G237_10E
B8: GpH7-B3 variant G237_04F/GpL16-k0 (antibody, human IgG1, kappa)
heavy: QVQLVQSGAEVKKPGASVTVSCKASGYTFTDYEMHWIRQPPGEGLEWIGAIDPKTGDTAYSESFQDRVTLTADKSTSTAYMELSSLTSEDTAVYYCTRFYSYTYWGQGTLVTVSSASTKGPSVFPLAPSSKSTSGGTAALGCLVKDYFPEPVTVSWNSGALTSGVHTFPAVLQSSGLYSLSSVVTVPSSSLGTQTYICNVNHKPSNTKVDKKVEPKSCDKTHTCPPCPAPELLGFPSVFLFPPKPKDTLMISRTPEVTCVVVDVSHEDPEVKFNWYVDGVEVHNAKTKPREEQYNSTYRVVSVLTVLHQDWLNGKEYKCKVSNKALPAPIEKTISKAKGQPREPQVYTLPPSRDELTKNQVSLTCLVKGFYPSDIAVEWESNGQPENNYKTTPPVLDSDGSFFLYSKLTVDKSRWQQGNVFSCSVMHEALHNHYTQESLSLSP
light: DIVMTQSPLSLPVTPGEPASISCQASESLVHSNRNTYLHWYLQKPGQSPQLLIYKVSNRFSGVPDRFSGSGSGTDFTLKISRVEAEDVGVYYCSQNTHVPPTFGQGTKVEIERTVAAPSVFIFPPSDEQLKSGTASVVCLLNNFYPREAKVQWKVDNALQSGNSQESVTEQDSKDSTYSLSSTLTLSKADYEKHKVYACEVTHQGLSSPVTKSFNRGEC
notes: also called Ho Ab G237_04F

This assay concerns the target T1, FcγRIIb extracellular domain with C-terminal His tag (human, UniProt P31994 43-217).
T1 construct: extracellular domain; also called FcgRIIb; 2b
T1 sequence (looked up): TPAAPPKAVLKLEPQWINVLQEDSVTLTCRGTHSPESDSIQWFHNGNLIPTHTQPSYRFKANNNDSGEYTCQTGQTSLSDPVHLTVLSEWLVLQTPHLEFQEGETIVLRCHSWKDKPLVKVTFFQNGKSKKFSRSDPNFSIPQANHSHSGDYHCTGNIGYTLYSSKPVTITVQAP
Put plainly: SPR (Biacore), relative binding. Here is the method: Analysis of interaction between objective antibody and the FcγR was carried out using Biacore T100 (GE Healthcare). HBS-EP+ (GE Healthcare) was used as the running buffer, and the measurement temperature was set to 25° C. Chips produced by immobilizing the antigen peptide by the amine coupling method to a Series S Sencor Chip CM5 (GE Healthcare), or alternatively, chips produced by allowing preliminarily biotinylated antigen peptides to interact with and immobilize onto a Series S Sensor Chip SA (certified) (GE Healthcare) were used. Antibodies of interest were captured onto an antigen peptide-immobilized chip, and allowed to interact to each FcγR diluted with running buffer. To regenerate and repeatedly use the chip, the antibodies captured on the chip were washed off by reacting 10 mM glycine-HCl, pH 1.5.
Take B1: the Ho/Con_2b was 102 % of HoCon Ab GpH7-B3/GpL16-k0.

Take B2: the Ho/Con_2b is 92.9 % of HoCon Ab GpH7-B3/GpL16-k0.

Take B3: the Ho/Con_2b is 35.3 % of HoCon Ab GpH7-B3/GpL16-k0.

For the molecule B4, the Ho/Con_2b was 25.7 % of HoCon Ab GpH7-B3/GpL16-k0.

On to B5, for which the Ho/Con_2b is 35.3 % of HoCon Ab GpH7-B3/GpL16-k0.

With B6, the Ho/Con_2b was 49.4 % of HoCon Ab GpH7-B3/GpL16-k0.

Turning to B7, the Ho/Con_2b was 17.8 % of HoCon Ab GpH7-B3/GpL16-k0.

With B8, the Ho/Con_2b was 140 % of HoCon Ab GpH7-B3/GpL16-k0.

The values are drawn from patent publication US20150344570A1 (published 2015).
